Positions count from the first letter of the chain named. Positions of bridges follow the written chain, without caps; N, C: chain ends. No end group written: not given here. *: point of attachment. 125I = [125I]*
Experiments:
Experiment in all cases: 125I-OxA binding on CHO-S cells expressing the OX1R mutant
OX1R Y211A = biological target: T1, OX1R Y211A (human, UniProt O43613 1-425)
T1 construct: site-directed mutant (TM5) stably expressed in CHO-S cells; not shown: YFP from vector pEYFP-N2 fused at the C-terminus
T1 chain: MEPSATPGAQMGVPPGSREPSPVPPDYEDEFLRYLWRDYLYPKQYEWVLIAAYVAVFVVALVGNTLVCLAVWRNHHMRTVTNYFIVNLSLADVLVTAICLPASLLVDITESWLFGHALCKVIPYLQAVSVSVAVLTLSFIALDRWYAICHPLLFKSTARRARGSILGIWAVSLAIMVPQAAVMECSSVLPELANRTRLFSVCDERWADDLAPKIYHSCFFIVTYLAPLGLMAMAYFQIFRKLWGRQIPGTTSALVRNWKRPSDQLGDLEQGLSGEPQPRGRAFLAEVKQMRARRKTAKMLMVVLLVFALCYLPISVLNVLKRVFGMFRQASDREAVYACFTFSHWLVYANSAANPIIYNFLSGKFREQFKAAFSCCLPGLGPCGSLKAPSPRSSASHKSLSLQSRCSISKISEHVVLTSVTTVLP
Method: (§1) CHO—S cells expressing recombinant native or mutated OX1R were grown as previously described (El Firar et al., 2009) and maintained at 37° C. in a humidified 5% CO₂/air incubator. ¹²⁵I-orexia-A (74 TBq/mmol) was prepared as previously described (El Firar et al., 2009). […] Free peptides were removed by 2 cell washing cycles with PBS. […] Data were analyzed using the GraphPad software (http://www.graphpad.com).
(§2) All residues of OX1R fulfilling this condition were mutated to alanine by site-directed mutagenesis (Table II).

OX1R L320A = biological target: T2, OX1R L320A (human, UniProt O43613 1-425)
T2 construct: site-directed mutant (TM6) stably expressed in CHO-S cells; not shown: YFP from vector pEYFP-N2 fused at the C-terminus
T2 chain: T1 chain with A211Y, L320A
Method: as §1, §2

OX1R C99A = biological target: T3, OX1R C99A (human, UniProt O43613 1-425)
T3 construct: site-directed mutant (TM2) stably expressed in CHO-S cells; not shown: YFP from vector pEYFP-N2 fused at the C-terminus
T3 chain: T1 chain with C99A, A211Y
Method: as §1, §2

OX1R V121A = biological target: T4, OX1R V121A (human, UniProt O43613 1-425)
T4 construct: site-directed mutant (TM3) stably expressed in CHO-S cells; not shown: YFP from vector pEYFP-N2 fused at the C-terminus
T4 chain: T1 chain with V121A, A211Y
Method: as §1, §2

OX1R P101A = biological target: T5, OX1R P101A (human, UniProt O43613 1-425)
T5 construct: site-directed mutant (TM2) stably expressed in CHO-S cells; not shown: YFP from vector pEYFP-N2 fused at the C-terminus
T5 chain: T1 chain with P101A, A211Y
Method: as §1, §2

- binding result (OX1R Y211A): binds
- binding result (OX1R L320A): binds
- binding result (OX1R C99A): binds
- binding result (OX1R V121A): binds
- binding result (OX1R P101A): binds
Binder: QPLPDCCRQKTCSCRLY(125I)ELLHGAGNHAAGILTL (peptide, UniProt O43612 34-66, looked up, disulfide 6-12, 7-14; not fully specified (residue 1, C-terminus), mature; also called OxA) [125I-orexin-A]

Reference: US20180044393A1 (INSERM INSTITUT NATIONAL DE LA SANT ET DE LA RECHERCHE M …, published 2018)
